In patent US20190071490A1 (BETH ISRAEL DEACONESS MEDICAL CENTER, published 2019):

T1: human α-CGRP 1-37 (WT) (human, C-terminal amide; N-terminal biotin when captured on the SA chip; 125I-labelled in the radioligand assay)
T1 construct: also called α-human
T1 peptide: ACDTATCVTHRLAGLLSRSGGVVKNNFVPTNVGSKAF

T2: rat α-CGRP (1-37) (rat, C-terminal amide; N-terminal biotin when captured on the SA chip)
T2 construct: also called rat α (1-37); α-rat
T2 peptide: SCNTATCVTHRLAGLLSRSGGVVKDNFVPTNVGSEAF


What was measured:
human α-CGRP 1-37 (WT) = biological target: T1, human α-CGRP 1-37 (WT); experiment: Biacore, 37°C, Fab over CGRP on SA chip
Procedure, shortened: (§1)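 Fab analyte flowed over N-biotinylated CGRP captured at low density on a streptavidin chip in HBS-EP (pH 7.4), 1-min injections at 100 μL/min, at least 10 min dissociation.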

rat α-CGRP (1-37) = biological target: T2, rat α-CGRP (1-37); experiment: Biacore, 37°C, Fab over CGRP on SA chip
Procedure, shortened: as §1

Kd (human α-CGRP 1-37 (WT)) [nM]	koff (human α-CGRP 1-37 (WT)) [s⁻¹]	Kd (rat α-CGRP (1-37)) [nM]	koff (rat α-CGRP (1-37)) [s⁻¹]	Binder
9.38	0.0015	147	0.00265	G1 variant M63 Fab (Fab, V domains shown, Fab; constant domains as m1) VH: EVQLVESGGGLVQPGGSLRLSCAASGFTFSNYWISWVRQAPGKGLEWVAEIRSKSDNTATHYAEAVKGRFTISRDNAKNSLYLQMNSLRAEDTAVYYCTVYFDYGLAIQNYWGQGTLVTVSS VL: EIVLTQSPATLSLSPGERATLSCKASKNVGTYVSWYQQKPGQAPRLLIYAASNRYLGIPARFSGSGSGTDFTLTISSLEPEDFAVYYCSQSYNYPYTFGQGTKLEIK
3.25	0.00052	284	0.00511	G1 variant M66 Fab (Fab, V domains shown, Fab; constant domains as m1; printed L561 read as L56I) VH: EVQLVESGGGLVQPGGSLRLSCAASGFTFSNYWISWVRQAPGKGLEWVAEIRSKSDESATHYAEAVKGRFTISRDNAKNSLYLQMNSLRAEDTAVYYCTVYFDYGLAIQNYWGQGTLVTVSS VL: EIVLTQSPATLSLSPGERATLSCKASKNVGTYVSWYQQKPGQAPRLLIYGASNRYIGIPARFSGSGSGTDFTLTISSLEPEDFAVYYCSQSYNYPYTFGQGTKLEIK
5.02	0.000803	226	0.00407	G1 variant M65 Fab (Fab, V domains shown, Fab; constant domains as m1) VH: EVQLVESGGGLVQPGGSLRLSCAASGFTFSNYWISWVRQAPGKGLEWVAEIRSKSDCSATHYAEAVKGRFTISRDNAKNSLYLQMNSLRAEDTAVYYCTVYFDYGLAIQNYWGQGTLVTVSS VL: EIVLTQSPATLSLSPGERATLSCKASKNVGTYVSWYQQKPGQAPRLLIYAASNRYIGIPARFSGSGSGTDFTLTISSLEPEDFAVYYCSQSYNYPYTFGQGTKLEIK
4.58	0.000733	101	0.00181	G1 variant M69 Fab (Fab, V domains shown, Fab; constant domains as m1; printed L561 read as L56I) VH: EVQLVESGGGLVQPGGSLRLSCAASGFTFSNYWISWVRQAPGKGLEWVAEIRSKSDNEATHYAEAVKGRFTISRDNAKNSLYLQMNSLRAEDTAVYYCTVYFDYGLAIQNYWGQGTLVTVSS VL: EIVLTQSPATLSLSPGERATLSCKASKNVGTYVSWYQQKPGQAPRLLIYGASNRYIGIPARFSGSGSGTDFTLTISSLEPEDFAVYYCSQSYNYPYTFGQGTKLEIK
8	0.00128	118	0.00212	G1 variant M71 Fab (Fab, V domains shown, Fab; constant domains as m1; printed L561 read as L56I) VH: EVQLVESGGGLVQPGGSLRLSCAASGFTFSNYWISWVRQAPGKGLEWVAEIRSKSDYSATHYAEAVKGRFTISRDNAKNSLYLQMNSLRAEDTAVYYCTVYFDYGLAIQNYWGQGTLVTVSS VL: EIVLTQSPATLSLSPGERATLSCKASKNVGTYVSWYQQKPGQAPRLLIYGASNRYIGIPARFSGSGSGTDFTLTISSLEPEDFAVYYCSQSYNYPYTFGQGTKLEIK
3.73	0.000597	335	0.00603	G1 variant M74 Fab (Fab, V domains shown, Fab; constant domains as m1) VH: EVQLVESGGGLVQPGGSLRLSCAASGFTFSNYWISWVRQAPGKGLEWVAEIRSKSDSSATHYAEAVKGRFTISRDNAKNSLYLQMNSLRAEDTAVYYCTVYFDYGLAIQNYWGQGTLVTVSS VL: EIVLTQSPATLSLSPGERATLSCKASKNVGTYVSWYQQKPGQAPRLLIYGASNRYSGIPARFSGSGSGTDFTLTISSLEPEDFAVYYCSQSYNYPYTFGQGTKLEIK
1.59	0.000255	167	0.003	G1 variant M73 Fab (Fab, V domains shown, Fab; constant domains as m1) VH: EVQLVESGGGLVQPGGSLRLSCAASGFTFSNYWISWVRQAPGKGLEWVAEIRSKSDNYATHYADAVKGRFTISRDNAKNSLYLQMNSLRAEDTAVYYCTVYFDYGLAIQNYWGQGTLVTVSS VL: EIVLTQSPATLSLSPGERATLSCKASKNVGTYVSWYQQKPGQAPRLLIYGASNRYSGIPARFSGSGSGTDFTLTISSLEPEDFAVYYCSQSYNYPYTFGQGTKLEIK
7.25	0.00116	1040	0.0187	G1 variant M75 Fab (Fab, V domains shown, Fab; constant domains as m1) VH: EVQLVESGGGLVQPGGSLRLSCAASGFTFSNYWISWVRQAPGKGLEWVAEIRSKSDVSATHYAEAVKGRFTISRDNAKNSLYLQMNSLRAEDTAVYYCTVYFDYGLAIQNYWGQGTLVTVSS VL: EIVLTQSPATLSLSPGERATLSCKASKNVGTYVSWYQQKPGQAPRLLIYGASNRYSGIPARFSGSGSGTDFTLTISSLEPEDFAVYYCSQSYNYPYTFGQGTKLEIK
8.25	0.00132	1300	0.0234	G1 variant M64 Fab (Fab, V domains shown, Fab; constant domains as m1) VH: EVQLVESGGGLVQPGGSLRLSCAASGFTFSNYWISWVRQAPGKGLEWVAEIRSKSDNVATHYAEAVKGRFTISRDNAKNSLYLQMNSLRAEDTAVYYCTVYFDYGLAIQNYWGQGTLVTVSS VL: EIVLTQSPATLSLSPGERATLSCKASKNVGTYVSWYQQKPGQAPRLLIYAASNRYLGIPARFSGSGSGTDFTLTISSLEPEDFAVYYCSQSYNYPYTFGQGTKLEIK
2.68	0.000428	376	0.00676	G1 variant M68 Fab (Fab, V domains shown, Fab; constant domains as m1; printed L561 read as L56I) VH: EVQLVESGGGLVQPGGSLRLSCAASGFTFSNYWISWVRQAPGKGLEWVAEIRSKSDNDATHYADAVKGRFTISRDNAKNSLYLQMNSLRAEDTAVYYCTVYFDYGLAIQNYWGQGTLVTVSS VL: EIVLTQSPATLSLSPGERATLSCKASKNVGTYVSWYQQKPGQAPRLLIYGASNRYIGIPARFSGSGSGTDFTLTISSLEPEDFAVYYCSQSYNYPYTFGQGTKLEIK
3.49	0.000559	337	0.00607	G1 variant M70 Fab (Fab, V domains shown, Fab; constant domains as m1; printed L561 read as L56I) VH: EVQLVESGGGLVQPGGSLRLSCAASGFTFSNYWISWVRQAPGKGLEWVAEIRSKSDSSATHYAEAVKGRFTISRDNAKNSLYLQMNSLRAEDTAVYYCTVYFDYGLAIQNYWGQGTLVTVSS VL: EIVLTQSPATLSLSPGERATLSCKASKNVGTYVSWYQQKPGQAPRLLIYGASNRYIGIPARFSGSGSGTDFTLTISSLEPEDFAVYYCSQSYNYPYTFGQGTKLEIK
2.5	0.0004	219	0.00395	G1 variant M72 Fab (Fab, V domains shown, Fab; constant domains as m1) VH: EVQLVESGGGLVQPGGSLRLSCAASGFTFSNYWISWVRQAPGKGLEWVAEIRSKSDASATHYAEAVKGRFTISRDNAKNSLYLQMNSLRAEDTAVYYCTVYFDYGLAIQNYWGQGTLVTVSS VL: EIVLTQSPATLSLSPGERATLSCKASKNVGTYVSWYQQKPGQAPRLLIYGASNRYSGIPARFSGSGSGTDFTLTISSLEPEDFAVYYCSQSYNYPYTFGQGTKLEIK
5.13	0.00082	95	0.00171	G1 variant M67 Fab (Fab, V domains shown, Fab; constant domains as m1; printed L561 read as L56I) VH: EVQLVESGGGLVQPGGSLRLSCAASGFTFSNYWISWVRQAPGKGLEWVAEIRSKSDFSATHYAEAVKGRFTISRDNAKNSLYLQMNSLRAEDTAVYYCTVYFDYGLAIQNYWGQGTLVTVSS VL: EIVLTQSPATLSLSPGERATLSCKASKNVGTYVSWYQQKPGQAPRLLIYGASNRYIGIPARFSGSGSGTDFTLTISSLEPEDFAVYYCSQSYNYPYTFGQGTKLEIK
